T1: Full-length myotilin with N-terminal thioredoxin tag (Trx-MYOT) (human, UniProt Q9UBF9 1-498)
T1 construct: myotilin, human, full length; source: E. coli B834 (DE3), purified (HisTrap FF, SEC); not shown: Trx, N-terminal, kept
T1 sequence (looked up): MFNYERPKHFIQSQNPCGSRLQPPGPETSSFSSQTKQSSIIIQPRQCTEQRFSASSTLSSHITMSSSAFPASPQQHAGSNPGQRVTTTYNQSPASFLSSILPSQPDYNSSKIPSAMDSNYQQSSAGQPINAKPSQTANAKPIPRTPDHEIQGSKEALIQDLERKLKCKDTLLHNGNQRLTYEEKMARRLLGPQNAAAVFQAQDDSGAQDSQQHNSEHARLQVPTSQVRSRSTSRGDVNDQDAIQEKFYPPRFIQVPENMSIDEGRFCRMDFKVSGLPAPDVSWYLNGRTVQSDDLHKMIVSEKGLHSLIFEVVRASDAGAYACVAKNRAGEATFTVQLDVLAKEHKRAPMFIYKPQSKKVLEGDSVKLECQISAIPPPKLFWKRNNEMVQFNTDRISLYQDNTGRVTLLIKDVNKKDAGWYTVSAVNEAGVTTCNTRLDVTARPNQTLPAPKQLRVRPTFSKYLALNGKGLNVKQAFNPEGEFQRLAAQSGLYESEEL


Experiments:
[1] = molecular target: F-actin (rabbit skeletal muscle actin, polymerized) (rabbit, UniProt P68135 1-377); assay: co-sedimentation; F-actin co-sedimentation, conditions B2 (PIPES pH 6.8, 100 mM NaCl); fixed 6 μM myotilin fragment in 20 μl mixed with pre-polymerized F-actin (0 to 60 μM) in 20 μl; one site-specific binding fit; apparent Kd; settings: both partners purified
[2] = molecular target: the molecule itself; assay: SAXS; batch SAXS at high or comparable concentrations; Ig1Ig2^250–444 up to 14.12 mg/ml, Ig1Ig2^250–498 up to 42.8 mg/ml, Ig1Ig2^220–452 up to 52 or 36.6 mg/ml, R405K up to 45.5 mg/ml; 20 mM HEPES, 150 mM NaCl, 5% glycerol, 1 mM DTT, pH 7.4 (one 220–452 set in 20 mM MES, 200 mM NaCl, pH 6.0); mass from I0, Rg, Dmax, P(r); monomer to dimer
[3] = molecular target: T1, Full-length myotilin with N-terminal …; assay: ITC; 25°C; 400 μM ACTN2-EF14 injected into the cell with 20 μM Trx-MYOT or Trx-MYOT-NEECK; 20 mM Hepes, 400 mM NaCl, 250 mM arginine, 5% glycerol, pH 7.5; settings: both partners purified

Row | Binder | Kd [1] [nM] | also measured
1 | Myotilin Ig1Ig2^185–454 (domain or fragment, limits determined by intact protein mass spectrometry of the final product; source: E. coli, purified (GSTrap FF, TEV cleavage, IMAC and GSTrap flow-through, SEC)) MARRLLGPQNAAAVFQAQDDSGAQDSQQHNSEHARLQVPTSQVRSRSTSRGDVNDQDAIQEKFYPPRFIQVPENMSIDEGRFCRMDFKVSGLPAPDVSWYLNGRTVQSDDLHKMIVSEKGLHSLIFEVVRASDAGAYACVAKNRAGEATFTVQLDVLAKEHKRAPMFIYKPQSKKVLEGDSVKLECQISAIPPPKLFWKRNNEMVQFNTDRISLYQDNTGRVTLLIKDVNKKDAGWYTVSAVNEAGVTTCNTRLDVTARPNQTLPAPKQL | 3000 ± 600 | –
2 | Myotilin Ig1Ig2^220–452 (domain or fragment, human, UniProt Q9UBF9 220-452, looked up, Dimer only at high concentration; monomeric at low concentrations; source: E. coli, purified (HisTrap, HRV-3C cleavage, SEC); not shown: His tag (from the HisTrap column)) LQVPTSQVRSRSTSRGDVNDQDAIQEKFYPPRFIQVPENMSIDEGRFCRMDFKVSGLPAPDVSWYLNGRTVQSDDLHKMIVSEKGLHSLIFEVVRASDAGAYACVAKNRAGEATFTVQLDVLAKEHKRAPMFIYKPQSKKVLEGDSVKLECQISAIPPPKLFWKRNNEMVQFNTDRISLYQDNTGRVTLLIKDVNKKDAGWYTVSAVNEAGVTTCNTRLDVTARPNQTLPAPK | – | stoichiometry N [2]: 2
3 | α-actinin-2 EF14 (ACTN2-EF14), CAMD encoding all 4 EF-hands (domain or fragment, His6-tag removed with HRV-3C protease; limits not printed (S3 Table), so taken by convention from just before EF-hand 1 (753) to the C-terminus) DAKGITQEQMNEFRASFNHFDRRKNGLMDHEDFRACLISMGYDLGEAEFARIMTLVDPNGQGTVTFQSFIDFMTRETADTDTAEQVIASFRILASDKPYILAEELRRELPPDQAQYCIKRMPAYSGPGSVPGALDYAAFSSALYGESDL | – | Kd [3]: 4.2 ± 1.2 µM

Continued, in another order:

Row | Kd [1] [nM] | Binder | also measured
4 | 1200 ± 200 | Myotilin Ig1Ig2^250–498 (domain or fragment, source: E. coli B834 (DE3), purified (HisTrap, HRV-3C cleavage, Resource S cation exchange, SEC); not shown: His tag (from the HisTrap column)) PRFIQVPENMSIDEGRFCRMDFKVSGLPAPDVSWYLNGRTVQSDDLHKMIVSEKGLHSLIFEVVRASDAGAYACVAKNRAGEATFTVQLDVLAKEHKRAPMFIYKPQSKKVLEGDSVKLECQISAIPPPKLFWKRNNEMVQFNTDRISLYQDNTGRVTLLIKDVNKKDAGWYTVSAVNEAGVTTCNTRLDVTARPNQTLPAPKQLRVRPTFSKYLALNGKGLNVKQAFNPEGEFQRLAAQSGLYESEEL | –
5 | 2000 ± 400 | Myotilin Ig1Ig2^185–498 (domain or fragment, source: E. coli C41 (DE3), purified (HisTrap FF, HRV-3C cleavage, StrepTrap HP, SEC)) MARRLLGPQNAAAVFQAQDDSGAQDSQQHNSEHARLQVPTSQVRSRSTSRGDVNDQDAIQEKFYPPRFIQVPENMSIDEGRFCRMDFKVSGLPAPDVSWYLNGRTVQSDDLHKMIVSEKGLHSLIFEVVRASDAGAYACVAKNRAGEATFTVQLDVLAKEHKRAPMFIYKPQSKKVLEGDSVKLECQISAIPPPKLFWKRNNEMVQFNTDRISLYQDNTGRVTLLIKDVNKKDAGWYTVSAVNEAGVTTCNTRLDVTARPNQTLPAPKQLRVRPTFSKYLALNGKGLNVKQAFNPEGEFQRLAAQSGLYESEEL | –
